Experimental data from patent publication US20230069418A1 (XIAMEN INNODX BIOTECH, published 2023).

Biological target: T1, polypeptide S29 (HBcAg-aa141-aa154) (hepatitis B virus)
T1 peptide: STLPETTVVRRRGR
Assay: indirect ELISA on coated peptide, antibody 1 ug/mL; positive if measured/background > 5

B1: 2A7 monoclonal antibody (antibody, V domains shown)
VH: QVQLQQPGAELVKPGASVKLSCKASGYTFTRYWMHWVMQRPGQDLEWIGEINPINGRTNYNEKFRRKATLTVDKSSSTVYIQFSSLTSEDSAVYFCTREGYRNDYYYAMDFWGRGTSVTVSS
VL: DIQMTQTSSSLSASPGDRVTISCRASQGINNYLNWYKQKTDGTFKLLIYYTSYLHSGVPSRFSGRGSGTDYSLTISNLEPEDVATYYCQQYGKLPWTFGGGTKLEIK
notes: also called HBc-2A7; 2A7-21
binding result: binds
